Reference: patent US20090156483A1 (IPSEN PHARMA S A S, published 2009)
*1 amine or outer side, *2 acyl side, *3 side chain or, on linkers, in order; H or OH if unused. Where no end group is shown, it is not given here. [ ]: non-standard residue; d: D form. The star is where a group is joined. Glu(NH-hexyl) = N5-hexyl-L-glutamine, CCCCCCNC(=O)CC[C@H](N[*:1])C(=O)[*:2]; Biotin = O=C1N[C@H]2[C@H](CS[C@H]2CCCCC(=O)*)N1; Myristoyl = CCCCCCCCCCCCCC(=O)*; Octanoyl = CCCCCCCC(=O)*; Aib = CC(C)(N)C(=O)O

B1: (Ac-Aib^1,Aib^2,10,Glu(NH-hexyl)^3,17)hGhrelin(1-28)-NH2 (peptide)
peptide: Ac-[Aib][Aib][Glu(NH-hexyl)]FLSPEH[Aib]RVQQRK[Glu(NH-hexyl)]SKKPPAKLQPR-NH2
SMILES: CCCCCCNC(=O)CC[C@H](NC(=O)[C@H](CCCCN)NC(=O)[C@H](CCCNC(=N)N)NC(=O)[C@H](CCC(N)=O)NC(=O)[C@H](CCC(N)=O)NC(=O)[C@@H](NC(=O)[C@H](CCCNC(=N)N)NC(=O)C(C)(C)NC(=O)[C@H](Cc1c[nH]cn1)NC(=O)[C@H](CCC(=O)O)NC(=O)[C@@H]1CCCN1C(=O)[C@H](CO)NC(=O)[C@H](CC(C)C)NC(=O)[C@H](Cc1ccccc1)NC(=O)[C@H](CCC(=O)NCCCCCC)NC(=O)C(C)(C)NC(=O)C(C)(C)NC(C)=O)C(C)C)C(=O)N[C@@H](CO)C(=O)N[C@@H](CCCCN)C(=O)N[C@@H](CCCCN)C(=O)N1CCC[C@H]1C(=O)N1CCC[C@H]1C(=O)N[C@@H](C)C(=O)N[C@@H](CCCCN)C(=O)N[C@@H](CC(C)C)C(=O)N[C@@H](CCC(N)=O)C(=O)N1CCC[C@H]1C(=O)N[C@@H](CCCNC(=N)N)C(N)=O
notes: Synthetic ghrelin analog; calculated MW 3477.19, found 3477.40; also called #158
B2: (Aib^2,10,Glu(NH-hexyl)^3,17)hGhrelin(1-28)-NH2 (peptide)
peptide: G[Aib][Glu(NH-hexyl)]FLSPEH[Aib]RVQQRK[Glu(NH-hexyl)]SKKPPAKLQPR-NH2
modifications: N-terminus assumed
SMILES: CCCCCCNC(=O)CC[C@H](NC(=O)[C@H](CCCCN)NC(=O)[C@H](CCCNC(=N)N)NC(=O)[C@H](CCC(N)=O)NC(=O)[C@H](CCC(N)=O)NC(=O)[C@@H](NC(=O)[C@H](CCCNC(=N)N)NC(=O)C(C)(C)NC(=O)[C@H](Cc1c[nH]cn1)NC(=O)[C@H](CCC(=O)O)NC(=O)[C@@H]1CCCN1C(=O)[C@H](CO)NC(=O)[C@H](CC(C)C)NC(=O)[C@H](Cc1ccccc1)NC(=O)[C@H](CCC(=O)NCCCCCC)NC(=O)C(C)(C)NC(=O)CN)C(C)C)C(=O)N[C@@H](CO)C(=O)N[C@@H](CCCCN)C(=O)N[C@@H](CCCCN)C(=O)N1CCC[C@H]1C(=O)N1CCC[C@H]1C(=O)N[C@@H](C)C(=O)N[C@@H](CCCCN)C(=O)N[C@@H](CC(C)C)C(=O)N[C@@H](CCC(N)=O)C(=O)N1CCC[C@H]1C(=O)N[C@@H](CCCNC(=N)N)C(N)=O
notes: Synthetic ghrelin analog; calculated MW 3407.10, found 3407.20; also called #58
B3: (Aib^2,8,Ser^3,Glu(NH-hexyl)^17)hGhrelin(1-28)-NH2 (peptide)
peptide: GXSFLSPXHQRVQQRKESKKPPAKLQPR
modifications: Aib at 2 and 8; Ser at 3 (plain, not acylated); Glu(NH-hexyl) at 17; C-terminal amide
notes: Synthetic ghrelin analog; calculated MW 3280.91 (fits an unacylated Ser 3), found 3281.60; also called #219
B4: (Lys(biotinyl)^17)hGhrelin(1-28)-NH2 (peptide)
peptide: GSS(Octanoyl)FLSPEHQRVQQRKK(Biotin)SKKPPAKLQPR-NH2
modifications: N-terminus assumed
SMILES: CCCCCCCC(=O)OC[C@H](NC(=O)[C@H](CO)NC(=O)CN)C(=O)N[C@@H](Cc1ccccc1)C(=O)N[C@@H](CC(C)C)C(=O)N[C@@H](CO)C(=O)N1CCC[C@H]1C(=O)N[C@@H](CCC(=O)O)C(=O)N[C@@H](Cc1c[nH]cn1)C(=O)N[C@@H](CCC(N)=O)C(=O)N[C@@H](CCCNC(=N)N)C(=O)N[C@H](C(=O)N[C@@H](CCC(N)=O)C(=O)N[C@@H](CCC(N)=O)C(=O)N[C@@H](CCCNC(=N)N)C(=O)N[C@@H](CCCCN)C(=O)N[C@@H](CCCCNC(=O)CCCC[C@@H]1SC[C@@H]2NC(=O)N[C@@H]21)C(=O)N[C@@H](CO)C(=O)N[C@@H](CCCCN)C(=O)N[C@@H](CCCCN)C(=O)N1CCC[C@H]1C(=O)N1CCC[C@H]1C(=O)N[C@@H](C)C(=O)N[C@@H](CCCCN)C(=O)N[C@@H](CC(C)C)C(=O)N[C@@H](CCC(N)=O)C(=O)N1CCC[C@H]1C(=O)N[C@@H](CCCNC(=N)N)C(N)=O)C(C)C
notes: Synthetic ghrelin analog; calculated MW 3595.27, found 3594.90; also called #78
B5: (Ac-Gly^1,Aib^2,10,Glu(NH-hexyl)^3,17)hGhrelin(1-28)-NH2 (peptide)
peptide: Ac-G[Aib][Glu(NH-hexyl)]FLSPEH[Aib]RVQQRK[Glu(NH-hexyl)]SKKPPAKLQPR-NH2
SMILES: CCCCCCNC(=O)CC[C@H](NC(=O)[C@H](CCCCN)NC(=O)[C@H](CCCNC(=N)N)NC(=O)[C@H](CCC(N)=O)NC(=O)[C@H](CCC(N)=O)NC(=O)[C@@H](NC(=O)[C@H](CCCNC(=N)N)NC(=O)C(C)(C)NC(=O)[C@H](Cc1c[nH]cn1)NC(=O)[C@H](CCC(=O)O)NC(=O)[C@@H]1CCCN1C(=O)[C@H](CO)NC(=O)[C@H](CC(C)C)NC(=O)[C@H](Cc1ccccc1)NC(=O)[C@H](CCC(=O)NCCCCCC)NC(=O)C(C)(C)NC(=O)CNC(C)=O)C(C)C)C(=O)N[C@@H](CO)C(=O)N[C@@H](CCCCN)C(=O)N[C@@H](CCCCN)C(=O)N1CCC[C@H]1C(=O)N1CCC[C@H]1C(=O)N[C@@H](C)C(=O)N[C@@H](CCCCN)C(=O)N[C@@H](CC(C)C)C(=O)N[C@@H](CCC(N)=O)C(=O)N1CCC[C@H]1C(=O)N[C@@H](CCCNC(=N)N)C(N)=O
notes: Synthetic ghrelin analog; calculated MW 3449.14, found 3449.20; also called #146
B6: (Ac-Gly^1,Aib^2,10,Glu(NH-hexyl)^3,Lys(biotinyl)^17)hGhrelin(1-28)-NH2 (peptide)
peptide: Ac-G[Aib][Glu(NH-hexyl)]FLSPEH[Aib]RVQQRKK(Biotin)SKKPPAKLQPR-NH2
SMILES: CCCCCCNC(=O)CC[C@H](NC(=O)C(C)(C)NC(=O)CNC(C)=O)C(=O)N[C@@H](Cc1ccccc1)C(=O)N[C@@H](CC(C)C)C(=O)N[C@@H](CO)C(=O)N1CCC[C@H]1C(=O)N[C@@H](CCC(=O)O)C(=O)N[C@@H](Cc1c[nH]cn1)C(=O)NC(C)(C)C(=O)N[C@@H](CCCNC(=N)N)C(=O)N[C@H](C(=O)N[C@@H](CCC(N)=O)C(=O)N[C@@H](CCC(N)=O)C(=O)N[C@@H](CCCNC(=N)N)C(=O)N[C@@H](CCCCN)C(=O)N[C@@H](CCCCNC(=O)CCCC[C@@H]1SC[C@@H]2NC(=O)N[C@@H]21)C(=O)N[C@@H](CO)C(=O)N[C@@H](CCCCN)C(=O)N[C@@H](CCCCN)C(=O)N1CCC[C@H]1C(=O)N1CCC[C@H]1C(=O)N[C@@H](C)C(=O)N[C@@H](CCCCN)C(=O)N[C@@H](CC(C)C)C(=O)N[C@@H](CCC(N)=O)C(=O)N1CCC[C@H]1C(=O)N[C@@H](CCCNC(=N)N)C(N)=O)C(C)C
notes: Synthetic ghrelin analog; calculated MW 3591.32, found 3591.50; also called #166
B7: (Ac-Gly^1,Aib^2,8,Glu(NH-hexyl)^3,17)hGhrelin(1-28)-NH2 (peptide)
peptide: GXEFLSPXHQRVQQRKESKKPPAKLQPR
modifications: N-terminal acetyl (Ac-Gly at 1); Aib at 2 and 8; Glu(NH-hexyl) at 3 and 17; C-terminal amide
notes: Synthetic ghrelin analog; calculated MW 3448.16, found 3447.98
B8: (Aib^1,2,10,Glu(NH-hexyl)^3,17)hGhrelin(1-28)-NH2 (peptide)
peptide: [Aib][Aib][Glu(NH-hexyl)]FLSPEH[Aib]RVQQRK[Glu(NH-hexyl)]SKKPPAKLQPR-NH2
modifications: N-terminus assumed
SMILES: CCCCCCNC(=O)CC[C@H](NC(=O)[C@H](CCCCN)NC(=O)[C@H](CCCNC(=N)N)NC(=O)[C@H](CCC(N)=O)NC(=O)[C@H](CCC(N)=O)NC(=O)[C@@H](NC(=O)[C@H](CCCNC(=N)N)NC(=O)C(C)(C)NC(=O)[C@H](Cc1c[nH]cn1)NC(=O)[C@H](CCC(=O)O)NC(=O)[C@@H]1CCCN1C(=O)[C@H](CO)NC(=O)[C@H](CC(C)C)NC(=O)[C@H](Cc1ccccc1)NC(=O)[C@H](CCC(=O)NCCCCCC)NC(=O)C(C)(C)NC(=O)C(C)(C)N)C(C)C)C(=O)N[C@@H](CO)C(=O)N[C@@H](CCCCN)C(=O)N[C@@H](CCCCN)C(=O)N1CCC[C@H]1C(=O)N1CCC[C@H]1C(=O)N[C@@H](C)C(=O)N[C@@H](CCCCN)C(=O)N[C@@H](CC(C)C)C(=O)N[C@@H](CCC(N)=O)C(=O)N1CCC[C@H]1C(=O)N[C@@H](CCCNC(=N)N)C(N)=O
notes: Synthetic ghrelin analog; calculated MW 3435.16, found 3435.00; also called #70
B9: (Ac-Gly^1,Aib^2,Glu(NH-hexyl)^3,17)hGhrelin(1-28)-NH2 (peptide)
peptide: GXEFLSPEHQRVQQRKESKKPPAKLQPR
modifications: N-terminal acetyl (Ac-Gly at 1); Aib at 2; Glu(NH-hexyl) at 3 and 17; C-terminal amide
notes: Synthetic ghrelin analog; calculated MW 3492.17, found 3492.00
B10: (Aib^2,Lys(myristyl)^17)hGhrelin(1-28)-NH2 (peptide)
peptide: G[Aib]S(Octanoyl)FLSPEHQRVQQRKK(Myristoyl)SKKPPAKLQPR-NH2
modifications: N-terminus assumed
SMILES: CCCCCCCCCCCCCC(=O)NCCCC[C@H](NC(=O)[C@H](CCCCN)NC(=O)[C@H](CCCNC(=N)N)NC(=O)[C@H](CCC(N)=O)NC(=O)[C@H](CCC(N)=O)NC(=O)[C@@H](NC(=O)[C@H](CCCNC(=N)N)NC(=O)[C@H](CCC(N)=O)NC(=O)[C@H](Cc1c[nH]cn1)NC(=O)[C@H](CCC(=O)O)NC(=O)[C@@H]1CCCN1C(=O)[C@H](CO)NC(=O)[C@H](CC(C)C)NC(=O)[C@H](Cc1ccccc1)NC(=O)[C@H](COC(=O)CCCCCCC)NC(=O)C(C)(C)NC(=O)CN)C(C)C)C(=O)N[C@@H](CO)C(=O)N[C@@H](CCCCN)C(=O)N[C@@H](CCCCN)C(=O)N1CCC[C@H]1C(=O)N1CCC[C@H]1C(=O)N[C@@H](C)C(=O)N[C@@H](CCCCN)C(=O)N[C@@H](CC(C)C)C(=O)N[C@@H](CCC(N)=O)C(=O)N1CCC[C@H]1C(=O)N[C@@H](CCCNC(=N)N)C(N)=O
notes: Synthetic ghrelin analog; calculated MW 3577.35, found 3577.2; also called #217

These binders were tested against T1, human GH secretagogue receptor (human, UniProt Q92847 1-366) (assay: radioligand competition, (125I)ghrelin on membranes of CHO-K1 cells expressing hGHS-R).
T1 construct: whole, on cells; the Ca2+ assay used the whole cells; also called hGHS-R; ghrelin receptor
Experimental: Membranes for radioligand binding studies can be and were prepared by homogenization of the foregoing CHO-K1 cells expressing the human recombinant GHS receptor in about 20 ml of ice-cold 50 mM Tris-HCl with a Brinkman Polytron® (Brinkman®, Westbury, N.Y., U.S.A.) at setting 6 for about 15 seconds. The homogenates were washed twice by centrifugation (39,000 g/10 minutes) and the final pellets were resuspended in about 50 mM Tris-HCl containing 2.5 mM MgCl₂ and 0.1% bovine serum albumin (BSA). For the selected assay, aliquots of approximately 0.4 ml were incubated with 0.05 nM (¹²⁵I)ghrelin (˜2000 Ci/mmol; Perkin Elmer Life Sciences@, Boston, Mass., U.S.A.) with and without 0.05 ml of unlabeled competing test peptide. After approximately 60 minutes at 4° C., the bound (¹²⁵I)ghrelin was separated from the free ghrelin by rapid filtration through GF/C filters (available from Brandel®, Gaithersburg, Md., U.S.A.) which were pre-soaked in 0.5% polyethyleneimine/0.1% BSA. The filters were then washed 3 times with 5-ml aliquots of ice-cold 50 mM Tris-HCl and 0.1% BSA. The bound radioactivity trapped on the filters was counted by gamma spectrometry (using a spectrometer from Wallace LKB®, Gaithersburg, Md., U.S.A.). Specific binding was determined by subtracting (¹²⁵I)ghrelin bound in the presence of 1000 nM ghrelin (available from Bachem®, Torrence, Calif., U.S.A.) from the total (¹²⁵I)ghrelin bound.
A selection of the preferred embodiments was tested using the receptor binding assay discussed above and the results are reported in Table 2 presented below.

T1 sequence (Q92847 whole entry): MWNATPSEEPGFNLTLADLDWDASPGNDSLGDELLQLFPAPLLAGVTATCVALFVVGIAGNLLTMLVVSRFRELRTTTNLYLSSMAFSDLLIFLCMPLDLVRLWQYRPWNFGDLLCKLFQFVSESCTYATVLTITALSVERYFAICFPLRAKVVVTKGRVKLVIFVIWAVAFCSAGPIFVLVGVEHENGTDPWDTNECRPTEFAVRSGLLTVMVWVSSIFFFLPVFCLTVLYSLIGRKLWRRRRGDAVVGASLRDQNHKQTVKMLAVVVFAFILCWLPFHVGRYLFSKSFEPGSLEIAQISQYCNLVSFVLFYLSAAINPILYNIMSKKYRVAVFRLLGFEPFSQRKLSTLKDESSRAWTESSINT

Which Ki does the source give for B1 here?
The Ki was 24.4 nM.

How did the Ki turn out when B2 was run?
The Ki was 0.4 nM.

How did the Ki turn out when B3 was run?
The Ki was 214 nM.

How did the Ki turn out when B4 was run?
The Ki was 0.07 nM.

B5 was tested. Which Ki did it give?
The Ki was 0.99 nM.

How did the Ki turn out when B6 was run?
Its Ki is 1.28 nM.

How did the Ki turn out when B7 was run?
The Ki was 2.94 nM.

For B8, which Ki is on record?
Its Ki is 0.63 nM.

With B9 as the binder, how does the Ki read?
Its Ki is 1.68 nM.

How did the Ki turn out when B10 was run?
Its Ki is 0.16 nM.
